We go through one molecule from article PMC3598077 (EMBO Molecular Medicine, 2013).

This assay deals with T1, Recombinant His-RAD51 fusion protein (UniProt Q06609 1-339).
T1 sequence: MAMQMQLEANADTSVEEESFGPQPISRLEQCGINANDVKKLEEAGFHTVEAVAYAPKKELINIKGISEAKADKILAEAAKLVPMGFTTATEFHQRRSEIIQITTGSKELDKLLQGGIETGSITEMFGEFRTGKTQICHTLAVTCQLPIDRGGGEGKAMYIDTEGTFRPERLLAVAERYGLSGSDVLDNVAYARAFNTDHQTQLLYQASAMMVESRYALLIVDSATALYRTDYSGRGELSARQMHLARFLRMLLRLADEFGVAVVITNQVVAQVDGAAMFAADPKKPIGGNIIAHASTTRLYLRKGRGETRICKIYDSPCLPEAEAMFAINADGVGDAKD
The assay is described as follows: SPR. In general terms: Surface plasmon resonance follows binding to a sensor surface in real time, without labels.

In the case of FGGSFRTASNKEIKLSEHNIKKSKMFFKDIEEQYPT (domain or fragment) [Recombinant GST-BRC fusion protein (containing BRCA2-1005-1040, fused with GST at its N-terminal)], the binding result is recorded as “binds”.
